Results on four substances are retold here after publication PMC9992173, “Mapping of the extracellular RBP4 ligand binding domain on the RBPR2 receptor for Vitamin A transport” (Frontiers in Cell and Developmental Biology, 2023).

For experiment [1], the target named is Recombinant mouse RBP4 with 6XHis Tag (mouse) (UniProt Q00724). Description: SPR; mouse RBP4 amine-coupled to a CM5 chip (target 1,200 RU), Biacore S200; peptides as analytes, 0.8-26.6 uM; running buffer PBST (0.05% Tween20); 25 C; contact 120 s, dissociation 300 s; Kd from the site-specific binding fit Y=(Bmax*X)/(Kd+X). For orientation: In SPR one partner is held on a chip, and binding of the other changes the refractive index at the surface.

A further experiment has as its target RBP4 (UniProt P02753). The settings on record: cited from earlier work.

As to “mouse RBPR2-L296S mutant peptide (from UniProt Q9DBN1 280-321)”, the equilibrium dissociation constant (Kd) (commonly the constant that tells how readily two partners part at equilibrium) in experiment [1] was 21.3 µM. Same read-out and setting: the result for “mouse RBPR2-Y295P mutant peptide (from UniProt Q9DBN1 280-321)” reads 34.9 µM. Consider STRA6 (from UniProt Q9BX79), for which the Kd in the experiment with RBP4 was 22.4 µM. With “mouse RBPR2-S294A mutant peptide (from UniProt Q9DBN1 280-321)”, the Kd in experiment [1] was determined as 89.3 µM.
